Measurements as given in patent US20240325499A1, “FGF21 COMPOUND / GLP-1R AGONIST COMBINATIONS WITH OPTIMIZED ACTIVITY RATIO” (SANOFI, priority 2018, published 2024).

Biological target: human FGFR1c (FGF receptor 1c isoform) together with human beta-Klotho (KLB) (human) (UniProt P11362)
Experiment: cell-based or functional assay

Chain of mature human wild-type FGF21, FGF21(His29-Ser209) (Q9NSA1 29-209 L174P): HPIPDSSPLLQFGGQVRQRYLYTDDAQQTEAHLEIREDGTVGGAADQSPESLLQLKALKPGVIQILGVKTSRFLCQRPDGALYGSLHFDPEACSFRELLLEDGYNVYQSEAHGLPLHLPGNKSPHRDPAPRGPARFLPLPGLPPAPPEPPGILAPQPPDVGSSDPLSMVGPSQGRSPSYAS

mature human wild-type FGF21, FGF21(His29-Ser209) (from UniProt Q9NSA1 29-209) (ligand)
pERK ICW EC50 (nmol/L): 0.18 nmol/L | pFGFR ICW EC50 (nmol/L): 4.8 nmol/L
